Changes are numbered by the printed parent chain.
T1: huCD5-BTN (human, UniProt P06127 25-372, limits assumed, biotinylated (BTN))
T1 construct: Loaded onto streptavidin biosensors; also called human CD5
T1 sequence (looked up): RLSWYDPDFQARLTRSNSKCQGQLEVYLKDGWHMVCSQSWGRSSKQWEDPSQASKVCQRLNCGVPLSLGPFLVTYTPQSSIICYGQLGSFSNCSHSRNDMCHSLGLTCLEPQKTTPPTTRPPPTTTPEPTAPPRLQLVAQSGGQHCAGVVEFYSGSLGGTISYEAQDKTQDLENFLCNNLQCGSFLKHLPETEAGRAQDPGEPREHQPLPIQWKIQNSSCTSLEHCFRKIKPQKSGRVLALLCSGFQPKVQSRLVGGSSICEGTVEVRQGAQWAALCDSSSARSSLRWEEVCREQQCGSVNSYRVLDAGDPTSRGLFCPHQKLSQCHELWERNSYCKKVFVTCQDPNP

T2: biotinylated human CD5-HIS (human, UniProt P06127 25-372, biotinylated)
T2 construct: Loaded onto streptavidin Octet pins; also called huCD5; SA-human CD5; not shown: HIS tag
T2 sequence (looked up): T1 sequence (looked up)

T3: human CD5 on transfected HEK293T cells (human, UniProt P06127 25-495)
T3 construct: whole, on cells; also called huCD5; Human CD5 Cells
T3 sequence (looked up): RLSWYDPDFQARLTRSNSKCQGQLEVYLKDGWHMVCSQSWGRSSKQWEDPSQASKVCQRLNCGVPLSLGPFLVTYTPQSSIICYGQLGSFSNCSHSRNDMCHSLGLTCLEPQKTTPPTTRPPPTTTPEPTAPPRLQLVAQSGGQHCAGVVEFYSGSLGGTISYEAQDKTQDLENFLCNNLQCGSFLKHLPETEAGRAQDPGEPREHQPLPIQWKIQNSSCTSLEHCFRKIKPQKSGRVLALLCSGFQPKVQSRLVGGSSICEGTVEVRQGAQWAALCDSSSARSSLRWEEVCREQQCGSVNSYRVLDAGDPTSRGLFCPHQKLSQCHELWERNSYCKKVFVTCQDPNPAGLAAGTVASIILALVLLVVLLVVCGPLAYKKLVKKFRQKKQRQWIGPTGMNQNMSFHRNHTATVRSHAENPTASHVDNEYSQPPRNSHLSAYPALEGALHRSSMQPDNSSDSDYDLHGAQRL

B1: ABTx317 VHH-Fc (Fc fusion)
chain: QVQLVESGGGLVQAGASLRLSCAASGRTTYNMGWFRHAPGKDREFVAAIDLYGRATRYANSVKGRFTISRDNAKNTVYLQMNSLKPEDTAVYYCAADTSLPLGVLTKSQRMYGAWGQGTQVTVSS
notes: VHH as Fc fusion protein; order of the parts and the Fc are not described; also called anti-CD5 VHH-Fc; not shown: Fc (detected with anti-Human Fc)
B2: ABTx331 VHH-Fc (Fc fusion)
chain: B1 chain with K107E, M111L
notes: as for B1
B3: ABTx324 VHH-Fc (Fc fusion)
chain: QVQLVESGGGLVQPGGSVRLSCATSGSIFSTNVMGWYRQAPGKEREFVALIRGGGSTHYADSVKGRFIISRENAKTTVYLQMNGLKPEDTAVYYCVIWLGSPGAMSDYWGQGTQVTVSS
notes: as for B1
B4: ABTx315 VHH-Fc (Fc fusion)
chain: QVQLVESGGGLVQAGGSLRLSCAASGRTFGTYTMGWFRQAPGREREFVAAISWSAGRTYYADSMKGRFTISRDNAKNTVYLQMNSLKPEDTAVYYCAADPWTSDSDYDRLTMYDYWGQGTQVTVSS
notes: as for B1
B5: ABTx316 VHH-Fc (Fc fusion)
chain: QVQLVESGGGLVQAGGSLRLSCAASGGTVSSYAMGWFRQAPGKEREFVAVISWSGGRTYYADSVKGRFTISRDNAKNTVNLQMNSLKPEDTAVYYCAADPWTSDSDYERLTMYDYWGQGTQVTVSS
notes: as for B1
B6: ABTx326 VHH-Fc (Fc fusion)
chain: QVQLVESGGGLVQPGGSLRLSCAASGRTFINYAAGWFRQAPGKEREFVARISRSGGRTDYADSVKGRFTISRDNAKSTVYLQMNSLRPEDTAVYYCAEATVWEFTDGADQYDYWGQGTQVTVSS
notes: as for B1
B7: ABTx323 VHH-Fc (Fc fusion)
chain: QVQLQESGGGLVQAGGSLRLSCATSGITSSINVIGWYRQAPGKQRELVALVNSGGQTHYADSVKGRFTISRDNAKNTVFLQMNSLKPEDTAEYYCHGRYGIDNYWGEGTQVTVSS
notes: as for B1
B8: ABTx318 VHH-Fc (Fc fusion)
chain: QVQLQESGGGSVQAGGSLRLSCAASGRAFSAYAMGWFRQAPGKEREFVAAINWNGDTALRWNGFATRYADSVKGRFTISRVIAKNTVNLQMNSLKPEDTAVYYCAADTVVSGSYYLAARAEDYEYWGQGTQVTVSS
notes: as for B1
B9: ABTx325 VHH-Fc (Fc fusion)
chain: QVQLVESGGGLVQPGGSLRLSCAASGSDASTNNMAWYRQAPGKEREFVALIRTGGSTHVADSMKGRFTISRENAKNTVYLQMNSLKPEDTAVYYCVIWTGSPGALSDYWGQGTQVTVSS
notes: as for B1
B10: ABTx327 VHH-Fc (Fc fusion)
chain: QVQLVESGGGLVQPGGSLRLSCVASGGTFSTYGMGWFRQAPGKEREFVAVITGSGVGTQYADSVKDRFTISRENAKNTVYLQMNTLKLEDTAVYYCVSGHRPGWAVIRADAYEYWGQGTQVTVSS
notes: as for B1
B11: ABTx322 VHH-Fc (Fc fusion)
chain: QLQLVESGGGLVQPGGSLRLSCAASGSDFLVDATTWFRQAPGNQREFVAIMDIGGVTEYADSVKGRFTISRDHTKNTVYLQMNSLKVEDTAVYYCNTRGLWGQGTLVTVSS
notes: as for B1
B12: ABTx321 VHH-Fc (Fc fusion)
chain: QLQLVESGGGLVQPGESLRLSCVVSGDIFSFVGWGWYRQAPGKQREVVAQISTGGLTNYADSVKGRFAISRDNAKRTVYLQMNSLKFEDTAVYYCNVPGHPWGQGTQVTVSS
notes: as for B1
B13: ABTx328 VHH-Fc (Fc fusion)
chain: B12 chain with L2V, V32I, V47L, S52N, N58D, A68T, V97F, P101S
notes: as for B1
B14: ABTx330 VHH-Fc (Fc fusion)
chain: EVQLVESGGGLVQPGGSLRLSCAASGFPFSSSFMSWVRQAPGKGLEWVSTIYSDGSTYYADSVKGRFTISRDNAKKTAYLQMNSLKAEDTAVYYCATVTGSIRGQGTQVTVSS
notes: as for B1
B15: ABTx320 VHH-Fc (Fc fusion)
chain: QVQLVESGGGLVQAGGSLRLSCAASGPAFSSSGMGWFRQAPGKAREFVASMDWTGGSTYYGDSVKGRFTVSRDNAKMTVHLQMNSLRPEDTAVYYCARGTSGVAAVNLRGFFSWGPGTQVTVSS
notes: as for B1
B16: ABTx319 VHH-Fc (Fc fusion)
chain: QVQLVESGGGLVQPGGSLRLSCAASGFTFSMYSMSWVRQAPGKRLEWVSSISTGARDTAYADSVKGRFTISRDNADNTLYLHMNNLKPEDTAVYYCANGDLRYGPDGYDYRGQGTQVTVSS
notes: as for B1
B17: ABTx329 VHH-Fc (Fc fusion)
chain: QLQLVESGGGLVQPGESLRLSCAASGFSFSRVGMNWYRQAPGKERELVASISSDGSRTNYAHFVKGRFTISRDNVKNMVYLQMNSLKLEDTAVYYCNVPGNSWGQGTQVTVSS
notes: as for B1
B18: ABTx317 (VHH)
VHH: B1 chain
notes: VHH in periplasmic extract of the phage display clone; also called clone 280; not shown: c-myc tag of the phagemid construct (detected with anti-c-myc 9E10)
B19: ABTx331 (VHH)
VHH: B1 chain with K107E, M111L
notes: VHH in periplasmic extract of the phage display clone; also called clone 225; not shown: c-myc tag of the phagemid construct (detected with anti-c-myc 9E10)
B20: ABTx315 (VHH)
VHH: B4 chain
notes: VHH in periplasmic extract of the phage display clone; also called clone 502; not shown: c-myc tag of the phagemid construct (detected with anti-c-myc 9E10)
B21: ABTx316 (VHH)
VHH: B5 chain
notes: VHH in periplasmic extract of the phage display clone; also called clone 525; not shown: c-myc tag of the phagemid construct (detected with anti-c-myc 9E10)
B22: ABTx330 (VHH)
VHH: B14 chain
notes: VHH in periplasmic extract of the phage display clone; also called clone 563; not shown: c-myc tag of the phagemid construct (detected with anti-c-myc 9E10)

Each binder was assayed against T1, huCD5-BTN (assay: BLI in tandem, huCD5-BTN saturated with UCHT2 first; competitor UCHT2).

Binder	response [Response Units]
B1	1.24
B2	0.232
B3	0.663
B4	0.498
B5	0.394
B6	0.0571
B7	0.317
B8	1.15
B9	0.396
B10	0.025
B11	-0.137
B12	0.0713
B13	0.153
B14	0.367
B15	0.325
B16	1.17
B17	0.24

These binders were tested against T2, biotinylated human CD5-HIS (assay: BLI; KD on human CD5 divided by KD on cynomolgus CD5).

Binder	Hu/Cyno KD
B18	0.9
B19	0.6
B20	1.8
B21	0.9
B22	0.5

What follows are binders tested against T2, biotinylated human CD5-HIS (assay: BLI (Octet), biotinylated CD5-HIS on streptavidin pins).

Binder	Kd [nM]	koff [s⁻¹]	kon [M⁻¹ s⁻¹]
B18	2.1	0.00015	71000
B19	1.3	0.00012	94000
B20	0.4	6.3e-05	160000
B21	1.4	0.00015	110000
B22	0.65	8.3e-05	130000

These binders were tested against T4, biotinylated cynomolgus CD5-HIS (cynomolgus) in the same assay as above.
T4 construct: Loaded onto streptavidin Octet pins; also called CynoCD5; SA-Cyno CD5

Binder	Kd [nM]	koff [s⁻¹]	kon [M⁻¹ s⁻¹]
B18	2.4	0.0002	84000
B19	2.2	0.00016	71000
B20	0.22	5.8e-05	260000
B21	1.6	0.00021	130000
B22	1.4	0.00014	110000

The binders below were run against T5, cynomolgus CD5 on transfected HEK293T cells (cynomolgus (Table 8B); rhesus macaque …) (assay: flow cytometry, periplasmic extract on transfected HEK293T cells).
T5 construct: whole, on cells; also called Cynomolgus CD5 Cells; rhesus macaque (Macaca mulatta) CD5

Binder	percent of cells showing binding [%]
B18	79.5
B19	71.8
B20	79.1
B21	81.7
B22	72

The binders below were run against T3, human CD5 on transfected HEK293T cells in the same assay as above.

Binder	percent of cells showing binding [%]
B18	82.8
B19	89.2
B20	86.4
B21	85.8
B22	78.6

Each binder was assayed against T2, biotinylated human CD5-HIS (assay: BLI (Octet), biotinylated CD5-HIS on streptavidin pins, periplasmic extract, off-rate).

Binder	koff [s⁻¹]
B18	0.0131
B19	0.0145
B20	0.000566
B21	0.0054
B22	0.00231

What follows are binders tested against T4, biotinylated cynomolgus CD5-HIS in the same assay as above.

Binder	koff [s⁻¹]
B18	0.118
B19	0.0557
B20	0.000345
B21	0.0343
B22	0.0102

From US20260159603A1 (BEAM THERAPEUTICS, published 2026)
